Measured values: patent publication WO2001004269A1

What was measured:
von Willebrand factor [1] = molecular target: von Willebrand factor (UniProt P04275); experiment: as above, after thrombin digestion (activated factor VIII) in the absence of antibody; parameters: unit not given here
von Willebrand factor [2] = molecular target: von Willebrand factor (UniProt P04275); experiment: biotinylated recombinant factor VIII complexed to von Willebrand factor, captured on the anti-von Willebrand factor antibody MoAb4H1D7, no thrombin digestion, avidin-peroxidase detection; parameters: unit not given here

Work on “human recombinant factor VIII (from UniProt P00451 20-2351)” yielded an OD450 (OD450 (so in the source)) (von Willebrand factor [1]) of 160 and an OD450 (OD450 (so in the source)) (von Willebrand factor [2]) of 460.
